According to US20220127304A1:

Tests used:
human IgG1 (human) = test: SPR, Biacore X-100, human IgG1 on the chip, single cycle kinetics
[1] = biological target: human serum-derived IgG polyclonal antibody (WAKO) (human); test: affinity column breakthrough, scFv immobilized on HiTrap NHS-activated HP; average of Reference Examples 1-1 and 1-2
[2] = biological target: human serum-derived IgG polyclonal antibody (WAKO) (human); test: affinity column breakthrough, scFv immobilized on HiTrap NHS-activated HP (33.6 mg)
[3] = biological target: human serum-derived IgG polyclonal antibody (WAKO) (human); test: affinity column breakthrough, scFv immobilized on HiTrap NHS-activated HP

Binder	Kd (human IgG1 (human)) [nM]	koff (human IgG1 (human)) [s⁻¹]	kon (human IgG1 (human)) [M⁻¹ s⁻¹]	[10% DBC (mg/mL) at flow rate of 1.0 mL/min]/[amount of protein immobilized on column (mg)] [1]	[10% DBC (mg/mL) at flow rate of 1.0 mL/min]/[amount of protein immobilized on column (mg)] [2]	[10% DBC (mg/mL) at flow rate of 1.0 mL/min]/[amount of protein immobilized on column (mg)] [3]
R3-26 repCK+ori6K+VH4KVL4K (scFv) scFv: QEQLVESGGGLVKPGGTLTLTCTVSGIDLSSYAMSWVRQVPGKGLEWIGIIGSGGGTAYANWARGRFTISRTSSTTVDLRMTSLTTEDTATYFCATDYGIYGYAYGHLWGPGTLVTVTKKKKKGGGGSGGGGSGGGGSELVMTQTASPVSAKVGGTVTINCQASQSISTALAWYQQKPGQPPRLLIYDASTLASGVSSRFSGSGSGTEFTLTISDLESADAATYYCQTYFGSDTDNAFGEGTEVEIKKKKKGSAAALEHHHHHH	0.053	1.6e-05	300000	–	–	–
single-chain antibody R3-26 (scFv) scFv: QEQLVESGGGLVKPGGTLTLTCTVSGIDLSSYAMSWVRQVPGKGLEWIGIIGSGGGTAYANWAKGRFTISKTSSTTVDLKMTSLTTEDTATYFCATDYGIYGYAYGHLWGPGTLVTVTSGGGGSGGGGSGGGGSELVMTQTASPVSAAVGGTVTIKCQASQSISTALAWYQQRPGQPPKLLIYDASTLASGVSSRFKGSGSGTEFTLTISDLECADAATYYCQTYFGSDTDNAFGEGTEVEITGSAAALEHHHHHH	2.1	4.3e-05	21000	0.736 (mg/mL)/mg	–	–
R3-26 repCK+ori6K (scFv) scFv: QEQLVESGGGLVKPGGTLTLTCTVSGIDLSSYAMSWVRQVPGKGLEWIGIIGSGGGTAYANWARGRFTISRTSSTTVDLRMTSLTTEDTATYFCATDYGIYGYAYGHLWGPGTLVTVTKGGGGSGGGGSGGGGSELVMTQTASPVSAKVGGTVTINCQASQSISTALAWYQQKPGQPPRLLIYDASTLASGVSSRFSGSGSGTEFTLTISDLESADAATYYCQTYFGSDTDNAFGEGTEVEIKGSAAALEHHHHHH	0.79	6.2e-05	79000	–	0.777 (mg/mL)/mg	–
R3-26 repCK+K (scFv) scFv: QEQLVESGGGLVTPGGTLTLTCTVSGIDLSSYAMSWVRQVPGEGLEWIGIIGSGGGTAYANWARGRFTISRTSSTTVDLRMTSLTTEDTATYFCATDYGIYGYAYGHLWGPGTLVTVTSGGGGSGGGGSGGGGSELVMTQTASPVSAAVGGTVTINCQASQSISTALAWYQQRPGQPPRLLIYDASTLASGVSSRFSGSGSGTEFTLTISDLESADAATYYCQTYFGSDTDNAFGEGTEVEITGSAAAGGGGSKIEHHHHHH	1.6	9.1e-05	56000	–	–	0.625 (mg/mL)/mg
